For series [1], the system named is MCF7. The series can be described thus: percentage of EdU-negative (G0-arrested) nuclei per well, 72 h; higher = more G0 arrest. As to conditions: reference: sequence is the full UniProt precursor, the tested protein was the secreted form or ectodomain.
For series [2], the system named is hTERT-HMEC. The series is described as above. As to conditions: reference: sequence is the full UniProt precursor, the tested protein was the secreted form or ectodomain.
[3] abbreviates: protein concentration 0.0225 µM.
The mark [4] stands for this setting: protein concentration 0.010165 µM.
Setting [5] is: protein concentration 0.10165 µM.
The mark [6] stands for this setting: protein concentration 0.0301275 µM.
[7] abbreviates: protein concentration 0.301275 µM.
Where [8] appears, read: protein concentration 0.0075 µM.
Setting [9] is: protein concentration 0.0175 µM.

± gives the standard deviation of the averaged measurements.

This note sets out measurements from the supplement of paper PMC11316812.
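Further: secreted proteins added to cultured cells, EdU pulse at the end, nuclei found by Hoechst imaging, EdU status from nuclear versus surrounding ring intensity ratio, PBS as neutral control.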

For the sequence “MCGPDDRCPARWPGPGRAVKCGKGLAAARPGRVERGGAQRGGAGLELHPLLGGRTWRAARDADGCEALGTVAVPFDDDDKIVGGYTCEENSLPYQVSLNSGSHFCGGSLISEQWVVSAAHCYKTRIQVRLGEHNIKVLEGNEQFINAAKIIRHPKYNRDTLDNDIMLIKLSSPAVINARVSTISLPTTPPAAGTECLISGWGNTLSFGADYPDELKCLDAPVLTQAECKASYPGKITNSMFCVGFLEGGKDSCQRDSGGPVVCNGQLQGVVSWGHGCAWKNRPGVYTKVYNYVDWIKDTIAANS”, the “percentage of EdU-negative” value in series [1] (setting [3]) is 25.3 ± 0.83%; in series [1] (protein concentration 0.225 µM), 26.6 ± 3.7%; in series [2] (setting [3]), 5.21 ± 0.094%; in series [2] (protein concentration 0.225 µM), 7.39 ± 0.7%.
Take “MLGARLRLWVCALCSVCSMSVLRAYPNASPLLGSSWGGLIHLYTATARNSYHLQIHKNGHVDGAPHQTIYSALMIRSEDAGFVVITGVMSRRYLCMDFRGNIFGSHYFDPENCRFQHQTLENGYDVYHSPQYHFLVSLGRAKRAFLPGMNPPPYSQFLSRRNEIPLIHFNTPIPRRHTRSAEDDSERDPLNVLKPRARMTPAPASCSQELPSAEDNSPMASDPLGVVRGGRVNTHAGGTGPEGCRPFAKFI [Q9GZV9]”: the “percentage of EdU-negative” value is 24 ± 0.7% in series [1] (setting [4]), 27.2 ± 0.45% in series [1] (setting [5]), 4.81 ± 0.08% in series [2] (setting [4]) and 12.96 ± 0.081% in series [2] (setting [5]).
For the sequence “MRALRDRAGLLLCVLLLAALLEAALGLPVKKPRLRGPRPGSLTRLAEVSASPDPRPLKEEEEAPLLPRTHLQAEPHQHGCWTVTEPAAMTPGNATPPRTPEVTPLRLELQKLPGLANTTLSTPNPDTQASASPDPRPLREEEEARLLPRTHLQAELHQHGCWTVTEPAALTPGNATPPRTQEVTPLLLELQKLPELVHATLSTPNPDNQVTIKVVEDPQAEVSIDLLAEPSNPPPQDTLSWLPALWSFLWGDYKGEEKDRAPGEKGEEKEEDEDYPSEDIEGEDQEDKEEDEEEQALWFNGTTDNWDQGWLAPGDWVFKDSVSYDYEPQKEWSPWSPCSGNCSTGKQQRTRPCGYGCTATETRTCDLPSCPGTEDKDTLGLPSEEWKLLARNATDMHDQDVDSCEKWLNCKSDFLIKYLSQMLRDLPSCPCAYPLEAMDSPVSLQDEHQGRSFRWRDASGPRERLDIYQPTARFCLRSMLSGESSTLAAQHCCYDEDSRLLTRGKGAGMPNLISTDFSPKLHFKFDTTPWILCKGDWSRLHAVLPPNNGRACTDNPLEEEYLAQLQEAKEY [Q6H9L7]”, the “percentage of EdU-negative” value in series [1] (setting [6]) was determined as 24.4 ± 0.93%; in series [1] (setting [7]), 28.4 ± 1.3%; in series [2] (setting [6]), 5.26 ± 0.1%; in series [2] (setting [7]) it was 5.07 ± 0.18%.
On to “MAARALCMLGLVLALLSSSSAEEYVGLSANQCAVPAKDRVDCGYPHVTPKECNNRGCCFDSRIPGVPWCFKPLQEAECTF”, for which the “percentage of EdU-negative” value in series [1] (setting [3]) came out at 26.62 ± 0.26%; in series [1] (protein concentration 0.225 µM), 24 ± 0.99%; in series [2] (setting [3]), 4.3 ± 0.16%; in series [2] (protein concentration 0.225 µM), 4.29 ± 0.22%.
For “MCGSALAFFTAAFVCLQNDRRGPASFLWAAWVFSLVLGLGQGEDNRCASSNAASCARCLALGPECGWCVQEDFISGGSRSERCDIVSNLISKGCSVDSIEYPSVHVIIPTENEINTQVTPGEVSIQLRPGAEANFMLKVHPLKKYPVDLYYLVDVSASMHNNIEKLNSVGNDLSRKMAFFSRDFRLGFGSYVDKTVSPYISIHPERIHNQCSDYNLDCMPPHGYIHVLSLTENITEFEKAVHRQKISGNIDTPEGGFDAMLQAAVCESHIGWRKEAKRLLLVMTDQTSHLALDSKLAGIVVPNDGNCHLKNNVYVKSTTMEHPSLGQLSEKLIDNNINVIFAVQGKQFHWYKDLLPLLPGTIAGEIESKAANLNNLVVEAYQKLISEVKVQVENQVQGIYFNITAICPDGSRKPGMEGCRNVTSNDEVLFNVTVTMKKCDVTGGKNYAIIKPIGFNETAKIHIHRNCSCQCEDNRGPKGKCVDETFLDSKCFQCDENKCHFDEDQFSSESCKSHKDQPVCSGRGVCVCGKCSCHKIKLGKVYGKYCEKDDFSCPYHHGNLCAGHGECEAGRCQCFSGWEGDRCQCPSAAAQHCVNSKGQVCSGRGTCVCGRCECTDPRSIGRFCEHCPTCYTACKENWNCMQCLHPHNLSQAILDQCKTSCALMEQQHYVDQTSECFSSPSYLRIFFIIFIVTFLIGLLKVLIIRQVILQWNSNKIKSSSDYRVSASKKDKLILQSVCTRAVTYRREKPEEIKMDISKLNAHETFRCNF”, the “percentage of EdU-negative” value came to 28.2 ± 3% in series [1] (setting [8]), 28.3 ± 2.1% in series [1] (protein concentration 0.075 µM), 4.94 ± 0.66% in series [2] (setting [8]) and 6.65 ± 1.7% in series [2] (protein concentration 0.075 µM).
Turning to “MQSVQSTSFCLRKQCLCLTFLLLHLLGQVAATQRCPPQCPGRCPATPPTCAPGVRAVLDGCSCCLVCARQRGESCSDLEPCDESSGLYCDRSADPSNQTGICTAVEGDNCVFDGVIYRSGEKFQPSCKFQCTCRDGQIGCVPRCQLDVLLPEPNCPAPRKVEVPGECCEKWICGPDEEDSLGGLTLAAYRPEATLGVEVSDSSVNCIEQTTEWTACSKSCGMGFSTRVTNRNRQCEMLKQTRLCMVRPCEQEPEQPTDKKGKKCLRTKKSLKAIHLQFKNCTSLHTYKPRFCGVCSDGRCCTPHNTKTIQAEFQCSPGQIVKKPVMVIGTCTCHTNCPKNNEAFLQELELKTTRGKM”, the “percentage of EdU-negative” value in series [1] (setting [9]) worked out at 26.6 ± 2.9%; in series [1] (protein concentration 0.175 µM), 26.7 ± 4.2%; in series [2] (setting [9]), 4.53 ± 0.15%; in series [2] (protein concentration 0.175 µM), 15.1 ± 2.2%.
